The record followed here is publication PMC4887207, “Viral hijacking of a replicative helicase loader and its implications for helicase loading control and phage replication” (eLife, 2016).

In series [1] the target is SeMet-SaDnaI^AAA+ (Staphylococcus aureus) (UniProt Q3ZUA6). The series can be described thus: crystal structure; ADP•BeF3-bound SaDnaI^AAA+•77ORF104 complex, SeMet SAD, 1.9 Å; complex formed with two-fold excess of 77ORF104.
Series [2] addresses SaDnaI^AAA+ (residues 136-306) (Staphylococcus aureus) (UniProt Q3ZUA6). In words: fluorescence polarisation; anisotropy-based competition; 20 nM labeled 77ORF104 and 2 µM SaDnaI^AAA+, unlabeled 77ORF104 or mutant titrated; 50 mM HEPES-KOH pH 7.5, 125 mM KCl, 10% glycerol, 5 mM MgCl2, 1 mM DTT; apparent. Background: In fluorescence polarisation assays a small probe gives low polarisation when free and higher when bound to something large.

The target in series [3] is SaDnaI^AAA+ (residues 136-306) (UniProt Q3ZUA6). In words: competition-based fluorescence anisotropy assay. Conditions: read at the highest unlabeled competitor concentration (last point, just beyond the 10 µM tick); the competitor displaces N-terminally labeled wild-type …; parent: est. 20; read off a plot.
Series [4] concerns the molecule itself. The series can be described thus: SEC; analytical gel filtration, 5/150 GL Superdex 200; 20 mM Tris-HCl pH 8.0, 200 mM NaCl, 5% glycerol, 5 mM MgCl2, 1 mM BME, 10 mM ATP; 7 µM SaDnaC, 14 µM SaDnaI, 14 µM 77ORF013, 30 µM 77ORF104; peak fractions on SDS-PAGE.
For series [5], the target named is N-terminally labeled, wild-type 77ORF104 (Staphylococcus bacteriophage 77). In words: fluorescence polarisation; fluorescence anisotropy; 20 nM N-terminally AlexaFluor 488-labeled 77ORF104, unlabeled protein titrated in 2-fold steps; 50 mM HEPES-KOH pH 7.5, 125 mM KCl, 10% glycerol, 5 mM MgCl2, 1 mM DTT; single-site fit; apparent.
Series [6] deals with the molecule itself. The series can be described thus: centrifugal pelleting assay; 90 µM SaDnaI with or without 180 µM 77ORF104, 20 min on ice, 14,000 x g 1 min; 20 mM HEPES-KOH pH 7.5, 100 mM NaCl, 10% glycerol, 5 mM MgCl2, 6 mM ATP; SDS-PAGE of pellet and supernatant.

Consider phage 77 ORF104 protein, for which the stoichiometry N – broadly, the number of molecules, sites or subunits per partner or assembly – in series [1] is 1. As to “phage 77 ORF104 protein (natural protein)”, the Ki in series [2] worked out at 1620 nM. In the case of phage 77 ORF104 protein K39E, the response in series [3] was 26 mA. Still for that read-out and setting: the same measure for phage 77 ORF104 protein Y17E: 57 mA.

B1: SaDnaC replicative helicase (natural protein, Staphylococcus aureus, UniProt Q9AQH7 1-466, looked up)
chain: MDRMYEQNQMPHNNEAEQSVLGSIIIDPELINTTQEVLLPESFYRGAHQHIFRAMMHLNEDNKEIDVVTLMDQLSTEGTLNEAGGPQYLAELSTNVPTTRNVQYYTDIVSKHALKRRLIQTADSIANDGYNDELELDAILSDAERRILELSSSRESDGFKDIRDVLGQVYETAEELDQNSGQTPGIPTGYRDLDQMTAGFNRNDLIILAARPSVGKTAFALNIAQKVATHEDMYTVGIFSLEMGADQLATRMICSSGNVDSNRLRTGTMTEEDWSRFTIAVGKLSRTKIFIDDTPGIRINDLRSKCRRLKQEHGLDMIVIDYLQLIQGSGSRASDNRQQEVSEISRTLKALARELKCPVIALSQLSRGVEQRQDKRPMMSDIRESGSIEQDADIVAFLYRDDYYNRGGDEDDDDDGGFEPQTNDENGEIEIIIAKQRNGPTGTVKLHFMKQYNKFTDIDYAHADMM
notes: Staphylococcus aureus replicative helicase DnaC (a DnaB-family helicase); also called S. aureus DnaC replicative helicase; host helicase; not shown: His6, N-terminal, cleaved; MBP, N-terminal, cleaved
On to B1, for which the “stoichiometry N” value in series [4] was 2.

B2: SaDnaI^AAA+ (residues 136-306) (domain or fragment)
chain: DRLDVAMAADDICTAITNGEQVKGLYLYGPFGTGKSFILGAIANQLKSKKVRSTIIYLPEFIRTLKGGFKDGSFEKKLHRVREANILMLDDIGAEEVTPWVRDEVIGPLLHYRMVHELPTFFSSNFDYSELEHHLAMTRDGEEKTKAARIIERVKSLSTPYFLSGENFRNN
Turning to B2, the Kd in series [5] was 49 nM.

B3: full-length Staphylococcus aureus DnaI (natural protein, UniProt Q3ZUA6 1-306, looked up)
chain: MKQFKSIINTSQDFEKRIEKIKKEVINDPDVKQFLEAHRAELTNAMIDEDLNVLQEYKDQQKHYDGHKFADCPNFVKGHVPELYVDNNRIKIRYLQCPCKIKYDEERFEAELITSHHMQRDTLNAKLKDIYMNHRDRLDVAMAADDICTAITNGEQVKGLYLYGPFGTGKSFILGAIANQLKSKKVRSTIIYLPEFIRTLKGGFKDGSFEKKLHRVREANILMLDDIGAEEVTPWVRDEVIGPLLHYRMVHELPTFFSSNFDYSELEHHLAMTRDGEEKTKAARIIERVKSLSTPYFLSGENFRNN
notes: Staphylococcus aureus helicase loader DnaI, residues 1-306 by the limits of the domain constructs; Residues 136-306 are in PDB 5HE8 and 5HE9; also called SaDnaI; FL SaDnaI; not shown: His6, N-terminal, cleaved; MBP, N-terminal, cleaved
As to B3, the binding result in series [6] is on record as “binds”.
